Assay results reported in paper doi:10.1101/2020.10.16.343392 (bioRxiv, 2020).

Molecular target: the molecule itself
Test: crystal structure

B1: EfgA (enhanced formaldehyde growth protein A) from Methylorubrum extorquens PA1 (natural protein)
chain: MHVTIEQAEKAIQAARAKAVELGTQMCIAIVDSGGNLKAFHRMDGAWVGSIDIAQKKAKTAVFFGMKTGQIGALSQPGGSLYGIEHSNQGLITFPGGIPIVDADGEMSGAIGVSGSSVENDDAVALAGASAIGDTELPDHPWRT
stoichiometry N: 4
